Source: patent US20230322893A1 (BPGENE, published 2023)

B1: SV4 (designed binder)
chain: MEEELQIIQPDLSVSVAAGESAILHCTITSLFPVGPIQWFRGAGPARVLIYNQRQGPFPRVTTVSETTKRENMDFSISISNITPADAGTYYCIKFRKGSPDTEFLSGAGTELSVRAKPS
notes: also called SV4 protein
B2: SV4-iLP (other)
chain: B1 chain
notes: also called LPD-SV4; SV4-conjugated iLP
B3: SV4-DSPE (other)
chain: B1 chain
notes: also called DSPE-SV4; DSPE-PEG2000-SV4

Each binder was assayed against recombinant CD47 protein (UniProt Q08722 19-139) (assay: SPR; recombinant CD47 coupled to CM5 chip (250 RU); 1:1 model, global fit).
Chain of recombinant CD47 protein (Q08722 19-139 limits assumed): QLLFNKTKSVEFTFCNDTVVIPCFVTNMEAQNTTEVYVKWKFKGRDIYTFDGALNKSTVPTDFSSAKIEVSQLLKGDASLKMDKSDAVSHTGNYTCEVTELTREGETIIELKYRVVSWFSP
Protocol: Specifically, the recombinant CD47 protein was conjugated to the surface of the CM5 chip by a target SPR reaction of 250 RU through an EDC-NHS reaction to be used, and for HBS-P, the sensogram obtained through a process of association for 3 minutes and dissociation for 10 minutes at a flow rate of 30 µL/minutes was analyzed with the BiaEvaluation software using a 1:1 binding model and global fitting.
B1 was tested, and the Kd was 1.67 nM, the koff was 0.000275 s⁻¹ and the kon was 164000 M⁻¹ s⁻¹. B2 was tested, and the Kd was 1.27 nM, the koff was 0.000395 s⁻¹ and the kon was 312000 M⁻¹ s⁻¹. For B3, the Kd was 1.13 nM, the koff was 0.000256 s⁻¹ and the kon was 227000 M⁻¹ s⁻¹.
